# The supplement of paper PMC10567573
# B1: HSP90AB1 (parent)
# chain: EADKNDKAVKDLVVLLFETALLSS
# Variants of: B1
# Assay: protein stability index of a GFP-peptide fusion (GPS, HEK-293T) (PSI 1-6); higher = more stable
# Details: c terminus: a fixed tail appended
# 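Further: lentivirally expressed fusions sorted by FACS into six bins by GFP to DsRed ratio, PSI derived from sequencing read proportions per bin multiplied by bin number.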
row,Variant,protein stability index
1,EASKNDKAVKDLVVLLFETALLSS [D3S],2.65
2,EAVKNDKAVKDLVVLLFETALLSS [D3V],2.02
3,EAMKNDKAVKDLVVLLFETALLSS [D3M],1.25
4,EAQKNDKAVKDLVVLLFETALLSS [D3Q],1.82
5,EAHKNDKAVKDLVVLLFETALLSS [D3H],1.98
6,EAEKNDKAVKDLVVLLFETALLSS [D3E],1.65
7,EALKNDKAVKDLVVLLFETALLSS [D3L],1.86
8,EARKNDKAVKDLVVLLFETALLSS [D3R],1.9
9,EAKKNDKAVKDLVVLLFETALLSS [D3K],1.58
10,EAFKNDKAVKDLVVLLFETALLSS [D3F],3.79
11,EAIKNDKAVKDLVVLLFETALLSS [D3I],1.9
12,EAAKNDKAVKDLVVLLFETALLSS [D3A],2.57
13,EACKNDKAVKDLVVLLFETALLSS [D3C],1.4
14,EAPKNDKAVKDLVVLLFETALLSS [D3P],2.47
15,EATKNDKAVKDLVVLLFETALLSS [D3T],1.65
16,EANKNDKAVKDLVVLLFETALLSS [D3N],2.13
17,EAWKNDKAVKDLVVLLFETALLSS [D3W],1.86
18,EAYKNDKAVKDLVVLLFETALLSS [D3Y],2.46
19,EAGKNDKAVKDLVVLLFETALLSS [D3G],1.58
20,EADKQDKAVKDLVVLLFETALLSS [N5Q],1.8
21,EADKTDKAVKDLVVLLFETALLSS [N5T],2.43
22,EADKWDKAVKDLVVLLFETALLSS [N5W],2.28
23,EADKRDKAVKDLVVLLFETALLSS [N5R],1.63
24,EADKFDKAVKDLVVLLFETALLSS [N5F],1.64

row,Variant,protein stability index
1,EADKIDKAVKDLVVLLFETALLSS [N5I],1.9
2,EADKMDKAVKDLVVLLFETALLSS [N5M],2.27
3,EADKKDKAVKDLVVLLFETALLSS [N5K],2.35
4,EADKGDKAVKDLVVLLFETALLSS [N5G],1.67
5,EADKVDKAVKDLVVLLFETALLSS [N5V],1.93
6,EADKYDKAVKDLVVLLFETALLSS [N5Y],1.83
7,EADKEDKAVKDLVVLLFETALLSS [N5E],2.06
8,EADKLDKAVKDLVVLLFETALLSS [N5L],1.99
9,EADKHDKAVKDLVVLLFETALLSS [N5H],1.68
10,EADKPDKAVKDLVVLLFETALLSS [N5P],1.59
11,EADKSDKAVKDLVVLLFETALLSS [N5S],2
12,EADKADKAVKDLVVLLFETALLSS [N5A],2.57
13,EADKNDKAVFDLVVLLFETALLSS [K10F],2.22
14,EADKNDKAVIDLVVLLFETALLSS [K10I],1.96
15,EADKNDKAVTDLVVLLFETALLSS [K10T],2.26
16,EADKNDKAVNDLVVLLFETALLSS [K10N],2.01
17,EADKNDKAVGDLVVLLFETALLSS [K10G],1.86
18,EADKNDKAVWDLVVLLFETALLSS [K10W],1.83
19,EADKNDKAVYDLVVLLFETALLSS [K10Y],2.7
20,EADKNDKAVVDLVVLLFETALLSS [K10V],2.48
21,EADKNDKAVPDLVVLLFETALLSS [K10P],1.49
22,EADKNDKAVQDLVVLLFETALLSS [K10Q],2.19
23,EADKNDKAVHDLVVLLFETALLSS [K10H],2.38
24,EADKNDKAVDDLVVLLFETALLSS [K10D],2.42

row,Variant,protein stability index
1,EADKNDKAVLDLVVLLFETALLSS [K10L],1.82
2,EADKNDKAVRDLVVLLFETALLSS [K10R],1.8
3,EADKNDKAVADLVVLLFETALLSS [K10A],1.82
4,EADKNDKAVMDLVVLLFETALLSS [K10M],1.83
5,EADKNDKAVSDLVVLLFETALLSS [K10S],1.82
6,EADKNDKAVEDLVVLLFETALLSS [K10E],2.18
7,EADKNDKAVCDLVVLLFETALLSS [K10C],1.96
8,EADKNWKAVKDLVVLLFETALLSS [D6W],1.69
9,EADKNMKAVKDLVVLLFETALLSS [D6M],2.64
10,EADKNEKAVKDLVVLLFETALLSS [D6E],1.63
11,EADKNIKAVKDLVVLLFETALLSS [D6I],3.48
12,EADKNQKAVKDLVVLLFETALLSS [D6Q],2.2
13,EADKNAKAVKDLVVLLFETALLSS [D6A],2.51
14,EADKNGKAVKDLVVLLFETALLSS [D6G],1.85
15,EADKNRKAVKDLVVLLFETALLSS [D6R],1.73
16,EADKNYKAVKDLVVLLFETALLSS [D6Y],1.69
17,EADKNLKAVKDLVVLLFETALLSS [D6L],2.27
18,EADKNVKAVKDLVVLLFETALLSS [D6V],1.9
19,EADKNCKAVKDLVVLLFETALLSS [D6C],2.48
20,EADKNKKAVKDLVVLLFETALLSS [D6K],1.28
21,EADKNFKAVKDLVVLLFETALLSS [D6F],3.2
22,EADKNNKAVKDLVVLLFETALLSS [D6N],1.9
23,EADKNTKAVKDLVVLLFETALLSS [D6T],1.42
24,EADKNHKAVKDLVVLLFETALLSS [D6H],2.6

row,Variant,protein stability index
1,KADKNDKAVKDLVVLLFETALLSS [E1K],1.61
2,IADKNDKAVKDLVVLLFETALLSS [E1I],2.56
3,HADKNDKAVKDLVVLLFETALLSS [E1H],1.94
4,GADKNDKAVKDLVVLLFETALLSS [E1G],2.37
5,WADKNDKAVKDLVVLLFETALLSS [E1W],2.3
6,TADKNDKAVKDLVVLLFETALLSS [E1T],2.58
7,MADKNDKAVKDLVVLLFETALLSS [E1M],2.69
8,NADKNDKAVKDLVVLLFETALLSS [E1N],1.89
9,DADKNDKAVKDLVVLLFETALLSS [E1D],1.86
10,SADKNDKAVKDLVVLLFETALLSS [E1S],1.78
11,CADKNDKAVKDLVVLLFETALLSS [E1C],1.88
12,AADKNDKAVKDLVVLLFETALLSS [E1A],1.45
13,FADKNDKAVKDLVVLLFETALLSS [E1F],1.36
14,LADKNDKAVKDLVVLLFETALLSS [E1L],2.02
15,PADKNDKAVKDLVVLLFETALLSS [E1P],1.95
16,RADKNDKAVKDLVVLLFETALLSS [E1R],1.69
17,QADKNDKAVKDLVVLLFETALLSS [E1Q],1.87
18,VADKNDKAVKDLVVLLFETALLSS [E1V],2.54
19,EADKNDKAVKALVVLLFETALLSS [D11A],2.54
20,EADKNDKATKDLVVLLFETALLSS [V9T],2.49
21,EADKNDKAKKDLVVLLFETALLSS [V9K],2.15
22,EADKNDKAEKDLVVLLFETALLSS [V9E],3.07
